Reference: patent US7966133B2, “Method of identifying a potential substrates of an O-methyltransferase” (The Salk Institute for Biological Studies, priority 2000, dated 2011)
Substitutions are numbered along the chain they refer to. Names may count otherwise. “Also recorded” adds a separate entry of the source.

B1: H278L: ChOMT catalytic histidine mutant, His 278 to leucine (protein, listed as Medicago sativa)
chain: MGNSYITKEDNQISATSEQTEDSACLSAMVLTTNLVYPAVLNAAIDLNLFEIIAKATPPGAFMSPSEIASKLPASTQHSDLPNRLDRMLRLLASYSVLTSTTRTIEDGGAERVYGLSMVGKYLVPDESRGYLASFTTFLCYPALLQVWMNFKEAVVDEDIDLFKNVHGVTKYEFMGKDKKMNQIFNKSMVDVCATEMKRMLEIYTGFEGISTLVDVGGGSGRNLELIISKYPLIKGINFDLPQVIENAPPLSGIEHVGGDMFASVPQGDAMILKAVCLNWSDEKCIEFLSNCHKALSPNGKVIIVEFILPEEPNTSEESKLVSTLDNLMFITVGGRERTEKQYEKLSKLSGFSKFQVACRAFNSLGVMEFYK
B2: H278Q: ChOMT catalytic histidine mutant, His 278 to glutamine (protein, listed as Medicago sativa)
chain: B1 chain with L278Q
B3: H278N: ChOMT catalytic histidine mutant, His 278 to asparagine (protein, listed as Medicago sativa)
chain: B1 chain with L278N
B4: H278K: ChOMT catalytic histidine mutant, His 278 to lysine (protein, listed as Medicago sativa)
chain: B1 chain with L278K
B5: H278A: ChOMT catalytic histidine mutant, His 278 to alanine (protein, listed as Medicago sativa)
chain: B1 chain with L278A
B6: IOMT: Isoflavone O-methyltransferase (SEQ ID NO:4) from Medicago sativa L, recombinant wild type (protein, listed as Medicago sativa)
chain: MASSINGRKPSEIFKAQALLYKHIYAFIDSMSLKWAVGMNIPNIIHNHGKPISLSNLVSILQVPSSKIGNVRRLMRYLAHNGFFEIITKEEESYALTVASELLVRGSDLCLAPMVECVLDPTLSGSYHELKKWIYEEDLTLFGVTLGSGFWDFLDKNPEYNTSFNDAMASDSKLINLALRDCDFVFDGLESIVDVGGGTGTTAKIICETFPKLKCIVFDRPQVVENLSGSNNLTYVGGDMFTSIPNADAVLLKYILHNWTDKDCLRILKKCKEAVTNDGKRGKVTIIDMVINEKKDENQVTQIKLLMDVNMACLNGKERNEEEWKKLFIEAGFQHYKISPLTGFLSLIEIYP

Experiments:
nod genes = settings: among compounds released from alfalfa roots; via nodD1 and nodD2; cited from earlier work
[1] = aqueous solution; cited from earlier work
ChOMT = experiment: Qualitative enzyme activity assay, ChOMT (14C-SAM, TLC autoradiography); assay type: biochemical, Medicago sativa L; settings: 20 μg protein, 500 μM 2′,4,4′-trihydroxychalcone, 500 μM 14C-SAM, 2 hr room temperature; FIG. 7A
IOMT = experiment: Qualitative enzyme activity assay, IOMT (14C-SAM, TLC autoradiography); assay type: biochemical, Medicago sativa L; settings: expressed in E. coli

| Molecule | methyltransferase activity of ChOMT His 278 mutants (ChOMT) | further results |
| --- | --- | --- |
| COc1cc(O)ccc1C(=O)/C=C/c1ccc(O)cc1 [4,4′-dihydroxy-2′-methoxychalcone] | – | transcriptional activation of nod genes (nod genes): most efficient transcriptional activator |
| O=C1c2ccc(O)cc2OC(O)C1c1ccc(O)cc1 (centres unmarked) [2,7,4′-trihydroxyisoflavanone] | – | aqueous stability [1]: lack of aqueous stability; also recorded: unstable in aqueous solution |
| B1 | completely eliminated methyltransferase activity | – |
| B2 | completely eliminated methyltransferase activity | – |
| B3 | completely eliminated methyltransferase activity | – |
| B4 | completely eliminated methyltransferase activity | – |
| B5 | completely eliminated methyltransferase activity | – |
| B6 | – | specific activity of recombinant IOMT (IOMT): comparable to published values |
